In US20140242080A1 (Hoffmann-La Roche, published 2014):
Where a chain is given by its changes, count along the chain named.

T1: hu-MCSP(D3 domain)-avi-his (human, UniProt Q6UVK1 1582-2224)
T1 construct: Recombinant D3 domain with avi and his tags; also called human MCSP(D3 domain)-avi-his; Human MCSP D3
T1 sequence: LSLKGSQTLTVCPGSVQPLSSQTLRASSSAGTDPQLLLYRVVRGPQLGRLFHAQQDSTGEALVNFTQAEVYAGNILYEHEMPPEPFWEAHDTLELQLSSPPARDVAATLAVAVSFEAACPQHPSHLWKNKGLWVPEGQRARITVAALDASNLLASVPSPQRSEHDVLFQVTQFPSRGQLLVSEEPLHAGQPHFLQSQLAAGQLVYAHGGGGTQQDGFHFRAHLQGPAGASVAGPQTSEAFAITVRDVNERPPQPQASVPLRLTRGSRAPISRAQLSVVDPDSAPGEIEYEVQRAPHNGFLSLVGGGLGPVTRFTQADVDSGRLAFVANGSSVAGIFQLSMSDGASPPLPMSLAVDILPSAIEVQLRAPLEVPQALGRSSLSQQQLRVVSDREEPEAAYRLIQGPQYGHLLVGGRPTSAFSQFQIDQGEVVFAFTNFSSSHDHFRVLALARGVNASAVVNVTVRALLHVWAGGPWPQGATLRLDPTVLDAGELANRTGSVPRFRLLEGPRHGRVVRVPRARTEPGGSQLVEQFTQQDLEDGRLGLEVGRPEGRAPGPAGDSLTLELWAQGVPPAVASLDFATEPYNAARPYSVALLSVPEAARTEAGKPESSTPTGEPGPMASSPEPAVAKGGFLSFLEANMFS

T2: cynomolgus MCSP D3 (cynomolgus, UniProt Q6UVK1 1582-2224 (human entry), limits assumed)
T2 construct: also called Cyno MCSP; cynomolgus homologue
T2 chain: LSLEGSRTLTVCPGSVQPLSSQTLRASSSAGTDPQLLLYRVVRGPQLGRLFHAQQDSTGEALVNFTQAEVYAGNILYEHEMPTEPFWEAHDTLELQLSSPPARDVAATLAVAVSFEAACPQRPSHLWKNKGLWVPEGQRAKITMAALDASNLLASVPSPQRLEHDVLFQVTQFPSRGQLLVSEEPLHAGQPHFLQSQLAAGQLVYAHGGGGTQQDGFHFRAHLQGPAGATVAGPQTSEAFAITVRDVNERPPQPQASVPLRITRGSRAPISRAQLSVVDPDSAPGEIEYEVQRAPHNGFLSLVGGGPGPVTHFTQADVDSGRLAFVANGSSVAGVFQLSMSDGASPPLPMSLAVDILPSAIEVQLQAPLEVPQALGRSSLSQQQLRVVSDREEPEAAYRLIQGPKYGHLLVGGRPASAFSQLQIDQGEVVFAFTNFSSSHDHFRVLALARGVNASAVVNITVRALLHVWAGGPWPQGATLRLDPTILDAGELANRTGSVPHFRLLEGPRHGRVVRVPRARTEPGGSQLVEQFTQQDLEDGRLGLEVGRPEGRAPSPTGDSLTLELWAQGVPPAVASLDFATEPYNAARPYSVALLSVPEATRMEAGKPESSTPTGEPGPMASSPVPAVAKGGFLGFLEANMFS

T3: human CEA expressed on tumor cells (LS-174T, A549-huCEA, MKN-45, MC38-huCEA, HPAFII, BxPC-3, ASPC-1) (human, UniProt P06731 35-685)
T3 sequence (looked up): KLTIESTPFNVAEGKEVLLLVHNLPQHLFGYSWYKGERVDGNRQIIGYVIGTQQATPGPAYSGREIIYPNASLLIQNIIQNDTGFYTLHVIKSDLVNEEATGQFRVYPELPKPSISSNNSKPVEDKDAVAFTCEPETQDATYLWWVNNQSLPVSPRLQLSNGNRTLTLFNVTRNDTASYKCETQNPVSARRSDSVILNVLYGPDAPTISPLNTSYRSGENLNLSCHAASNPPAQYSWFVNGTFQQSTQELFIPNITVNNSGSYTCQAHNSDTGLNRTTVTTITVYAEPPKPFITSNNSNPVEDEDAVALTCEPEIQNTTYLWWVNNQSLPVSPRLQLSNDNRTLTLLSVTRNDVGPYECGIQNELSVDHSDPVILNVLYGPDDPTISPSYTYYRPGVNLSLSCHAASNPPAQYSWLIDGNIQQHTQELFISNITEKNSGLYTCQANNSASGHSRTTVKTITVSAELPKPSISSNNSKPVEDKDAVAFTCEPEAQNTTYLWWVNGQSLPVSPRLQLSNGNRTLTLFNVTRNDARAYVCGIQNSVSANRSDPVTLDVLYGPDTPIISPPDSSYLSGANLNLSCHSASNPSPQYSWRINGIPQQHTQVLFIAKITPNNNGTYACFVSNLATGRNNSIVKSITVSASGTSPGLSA

B1: Parental M4-3/ML2 IgG (antibody, V domains shown)
VH: QVQLQESGPGLVKPSQTLSLTCTVSGGSITSGYYWNWIRQHPGKGLEWIGYITYDGSNNYNPSLKSRVTISRDTSKNQFSLKLSSVTAADTAVYYCADFDYWGQGTLVTVSS
VL: DIQMTQSPSSLSASVGDRVTITCRASQGIRNYLNWYQQKPGKAPKLLIYYTSSLHSGVPSRFSGSGSGTDFTLTISSLQPEDFATYYCQQYSKLPWTFGQGTKVEIK
notes: Human IgG1 format, from mammalian production; also called M4-3 ML2 (parental); anti-MCSP antibody M4-3/ML2
B2: M4-3(C1)/ML2(C5) IgG (antibody, V domains shown)
VH: B1 VH with Y54F
VL: B1 VL with Q27R, N31E, S52G, K93E
notes: Human IgG1
B3: M4-3(C1)/ML2(G3) IgG (antibody, V domains shown)
VH: B1 VH with Y54F
VL: DIQMTQSPSSLSASVGDRVTITCRASQGIRNYLNWYQQKPGKAPKLLIYYTSSLHSGVPSRFSGSGSGTDYTLTISSLQPEDFATYYCQQYSALPWTFGQGTKVEIKR
notes: Human IgG1
B4: M4-3(C1)/ML2(E10) IgG (antibody, V domains shown)
VH: B1 VH with Y54F
VL: B1 VL with Q27Y, N31G, Y87H
notes: Human IgG1
B5: 1 + 1 IgG-Crossfab light chain fusion (CH1A1A/V9) (anti-CEA/anti-huCD3) (bispecific antibody)
chain 1: DIQMTQSPSSLSASVGDRVTITCRASQDIRNYLNWYQQKPGKAPKLLIYYTSRLESGVPSRFSGSGSGTDYTLTISSLQPEDFATYYCQQGNTLPWTFGQGTKVEIKSSASTKGPSVFPLAPSSKSTSGGTAALGCLVKDYFPEPVTVSWNSGALTSGVHTFPAVLQSSGLYSLSSVVTVPSSSLGTQTYICNVNHKPSNTKVDKKVEPKSC
chain 2: DIQMTQSPSSLSASVGDRVTITCKASAAVGTYVAWYQQKPGKAPKLLIYSASYRKRGVPSRFSGSGSGTDFTLTISSLQPEDFATYYCHQYYTYPLFTFGQGTKLEIKRTVAAPSVFIFPPSDEQLKSGTASVVCLLNNFYPREAKVQWKVDNALQSGNSQESVTEQDSKDSTYSLSSTLTLSKADYEKHKVYACEVTHQGLSSPVTKSFNRGECGGGGSGGGGSGGGGSGGGGSEVQLVESGGGLVQPGGSLRLSCAASGYSFTGYTMNWVRQAPGKGLEWVALINPYKGVSTYNQKFKDRFTISVDKSKNTAYLQMNSLRAEDTAVYYCARSGYYGDSDWYFDVWGQGTLVTVSSASVAAPSVFIFPPSDEQLKSGTASVVCLLNNFYPREAKVQWKVDNALQSGNSQESVTEQDSKDSTYSLSSTLTLSKADYEKHKVYACEVTHQGLSSPVTKSFNRGEC
chain 3: not shown
chain 4: DKTHTCPPCPAPEAAGGPSVFLFPPKPKDTLMISRTPEVTCVVVDVSHEDPEVKFNWYVDGVEVHNAKTKPREEQYNSTYRVVSVLTVLHQDWLNGKEYKCKVSNKALGAPIEKTISKAKGQPREPQVCTLPPSRDELTKNQVSLSCAVKGFYPSDIAVEWESNGQPENNYKTTPPVLDSDGSFFLVSKLTVDKSRWQQGNVFSCSVMHEALHNHYTQKSLSLSPGK
notes: also called “1+1 IgG Crossfab light chain (LC) fusion”

Legend:
[1] = molecular target: T1, hu-MCSP(D3 domain)-avi-his; assay: SPR ProteOn XPR36, 25 C; IgG captured via anti-human F(ab')2, MCSP D3 as analyte
cynomolgus MCSP D3 [2] = molecular target: T2, cynomolgus MCSP D3; assay: as above
[3] = molecular target: T1, hu-MCSP(D3 domain)-avi-his; assay: SPR Biacore T200, 25 C; affinity: IgG captured via anti-human Fc, MCSP D3 as analyte
Protocol: (§1) For analyzing the avidity of the interaction of different anti-MCSP IgGs to human and cynomolgus MCSP D3 direct coupling of around 9,500 resonance units (RU) of the anti-Penta His antibody (Qiagen) was performed on a CM5 chip at pH 5.0 using the standard amine coupling kit (Biacore, Freiburg/Germany). Antigens were captured for 60 s at 30 nM with 10 μl/min respectively. IgGs were passed at a concentration of 0.0064-100 nM with a flowrate of 30 μl/min through the flow cells over 280 s. The dissociation was monitored for 180 s. Bulk refractive index differences were corrected for by subtracting the response obtained on reference flow cell. […] For affinity measurements IgGs were captured on a CM5 sensorchip surface with immobilized anti human Fc. Capture IgG was coupled to the sensorchip surface by direct immobilization of around 9,500 resonance units (RU) at pH 5.0 using the standard amine coupling kit (Biacore, Freiburg/Germany). IgGs are captured for 25 s at 10 nM with 30 μl/min. Human and cynomolgus MCSP D3 were passed at a concentration of 2-500 nM with a flowrate of 30 μl/min through the flow cells over 120 s. The dissociation was monitored for 60 s. […] Bulk refractive index differences were corrected for by subtracting the response obtained on reference flow cell.

cynomolgus MCSP D3 [4] = molecular target: T2, cynomolgus MCSP D3; assay: as above
Protocol: as §1

[5] = molecular target: T1, hu-MCSP(D3 domain)-avi-his; assay: SPR Biacore T200, 25 C; avidity: MCSP D3 captured via anti-Penta His, IgG as analyte
Protocol: as §1

cynomolgus MCSP D3 [6] = molecular target: T2, cynomolgus MCSP D3; assay: as above
Protocol: as §1

[7] = molecular target: T1, hu-MCSP(D3 domain)-avi-his; assay: ratio of ProteOn IgG KD, parent M4-3/ML2 against variant
cynomolgus MCSP D3 [8] = molecular target: T2, cynomolgus MCSP D3; assay: as above
[9] = molecular target: T3, human CEA expressed on tumor cells …; assay: cell-based or functional assay
[10] = molecular target: T4, human CD3 expressed on Jurkat cells (human, UniProt P07766 23-207); assay: flow cytometry on Jurkat cells
T4 construct: CD3 complex on Jurkat T cells; also called CD3 on Jurkat cells; huCD3
Protocol: Binding of the different bispecific constructs to CD3 on Jurkat cells (ATCC #TIB-152), and the respective tumor antigen on target cells, was determined by FACS. Briefly, cells were harvested, counted and checked for viability. 0.15-0.2 million cells per well (in PBS containing 0.1% BSA; 90 μl) were plated in a round-bottom 96-well plate and incubated with the indicated concentration of the bispecific constructs and corresponding IgG controls (10 μl) for 30 min at 4° C. […] After the incubation, cells were centrifuged (5 min, 350×g), washed with 150 μl PBS containing 0.1% BSA, resuspended and incubated for further 30 min at 4° C. with 12 μl/well of a FITC- or PE-conjugated secondary antibody. Bound constructs were detected using a FACSCantoII (Software FACS Diva). The “(scFv)₂” molecule was detected using a FITC-conjugated anti-His antibody (Lucerna, #RHIS-45F-Z). For all other molecules, a FITC- or PE-conjugated AffiniPure F(ab′)2 Fragment goat anti-human IgG Fcγ Fragment Specific (Jackson Immuno Research Lab #109-096-098/working solution 1:20, or #109-116-170/working solution 1:80, respectively) was used. Cells were washed by addition of 120 μl/well PBS containing 0.1% BSA and centrifugation at 350×g for 5 min. A second washing step was performed with 150 μl/well PBS containing 0.1% BSA. […] EC50 values were calculated using the GraphPad Prism software.
As a control, the equivalent maximum concentration of the corresponding IgGs and the background staining due to the labeled 2ndary antibody (goat anti-human FITC-conjugated AffiniPure F(ab′)2 Fragment, FcγFragment-specific, Jackson Immuno Research Lab #109-096-098) were assessed as well.

T4 sequence (P07766 23-207 limits assumed): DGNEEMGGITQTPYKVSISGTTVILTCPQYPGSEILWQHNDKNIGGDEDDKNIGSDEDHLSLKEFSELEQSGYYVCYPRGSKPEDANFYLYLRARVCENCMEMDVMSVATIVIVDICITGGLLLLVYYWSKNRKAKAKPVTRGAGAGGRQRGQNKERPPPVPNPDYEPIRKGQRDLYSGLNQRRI

| Binder | Kd [1] | Kd (cynomolgus MCSP D3 [2]) | Kd [3] | Kd (cynomolgus MCSP D3 [4]) | Kd [5] | Kd (cynomolgus MCSP D3 [6]) | Fold increase over parent [7] | Fold increase over parent (cynomolgus MCSP D3 [8]) | EC50 of T cell-mediated killing (LDH release), LS-174T cells, human PBMCs E:T 10:1, 28 h [9] | EC50 of T cell-mediated killing (LDH release), MC38-huCEA cells, human PBMCs E:T 10:1, 24 h [9] | EC50 of T cell-mediated killing (LDH release), MKN-45 cells, human PBMCs E:T 10:1, 28 h [9] | binding result [10] |
| --- | --- | --- | --- | --- | --- | --- | --- | --- | --- | --- | --- | --- |
| B1 | 2 nM | 2 nM | 8.6 nM | 11.4 nM | 0.009 nM | 0.0123 nM | – | – | – | – | – | – |
| B2 | 0.2 nM | 0.3 nM | 1.8 nM | 1.3 nM | 0.0046 nM | 0.0044 nM | 10 fold | 6.7 fold | – | – | – | – |
| B3 | 0.07 nM | 0.2 nM | 1.8 nM | 1.4 nM | 0.0045 nM | 0.0038 nM | 28.6 fold | 10 fold | – | – | – | – |
| B4 | 0.5 nM | 0.6 nM | 4.6 nM | 3.8 nM | 0.0063 nM | 0.0044 nM | 4 fold | 3.3 fold | – | – | – | – |
| B5 | – | – | – | – | – | – | – | – | 1.56 nM | ~3.2 nM | 0.213 nM | binds |
